Experimental data from patent publication US11718646B2, “Bovine adrenal medulla peptide 8-22 compounds and methods of use thereof for treating pain” (Tufts Medical Center, priority 2015, dated 2023).
No end group written: not given here.

Experiments:
[1] = tested on: spinal nerve ligation neuropathic pain; settings: intrathecal; rats; cited from earlier work
wild type MrgprX1 = molecular target: T1, wild type MrgprX1 (Homo sapiens, UniProt Q96LB2); assay: SRE-luciferase reporter gene assay in transfected HEK293 cells, wild type receptor; type: cell-based
T1 construct: expressed in transfected cells; host or cells: HEK293
Procedure: A luciferase reporter-based assay was utilized as an index of receptor-mediated signaling (as in Doyle et al., 2013). Human kidney cells (HEK293), grown in Dulbecco's modified Eagle's medium (DMEM) containing 10% FBS, 100 U/ml penicillin, and 100 μg/ml streptomycin were seeded in 96-well plates and grown to 80% confluence. Using polyethylenimine (PEI, 2.0 μg/mL in serum-free DMEM), cells were transiently transfected with cDNAs encoding (a) wild type or variant MrgprX1 (3 ng/well); (b) an SRE-luciferase PEST construct (SRE5×-Luc-PEST), which includes five SRE repeats, a luciferase reporter gene, and the protein degradation sequence hPEST (Promega, catalog #E1340) (25 ng/well); and (c) a CMV-β-galactosidase construct as a control for variability in transfection efficiency (10 ng/well). In experiments that included transfection of an MTL-encoding construct, the corresponding cDNA was added to the transfection mix, at 4 ng/well or as indicated.
(§1) Twenty-four hours following transfection, cells were stimulated with soluble ligand for 4 hours (if applicable). After addition of SteadyLite reagent (PerkinElmer, Chicago, Ill.), luciferase activity of the lysate was measured using a TopCount NTX plate reader. Subsequently, 2-nitrophenyl β-D-galactopyranoside (ONPG) was added as a colorimetric substrate to enable quantification of β-galactosidase levels. After incubation with ONPG for 30 minutes, absorbance at 420 nm was measured using a SpectraMax microplate reader (Molecular Devices). Luciferase activity was normalized using the β-galactosidase activity data. Three independent experiments were performed, each with three technical replicates. Data were graphed and statistically analyzed using Graphpad Prism software.
GraphPad Prism software version 6.0 (GraphPad Software Inc., La Jolla, Calif.) was used for sigmoidal curve fitting of ligand concentration—response curves, linear regression, and statistical analysis. EC50 and pEC50 values were calculated for each independent experiment as an index of ligand potency. Reported values represent the mean of three independent experiments. Statistical comparisons were made by one-way analysis of variance with Dunnett's multiple comparisons test.
As additional tools for structure-function studies, MTLs incorporating one of two endogenous peptide ligands for MrgprX1, BAMS-22 and γ2-MSH, were generated. The activities of MTL constructs in both orientations (type I, with an extracellular N terminus of the ligand; type II, with an extracellular C terminus) were assessed using a luciferase-based reporter assay as described herein. […] Luciferase activity was quantified and normalized relative to β-galactosidase expression. […]

MrgprX1 R131S variant = molecular target: T2, MrgprX1 R131S variant (Homo sapiens, UniProt Q96LB2, R131S); assay: SRE-luciferase reporter gene assay in transfected HEK293 cells, R131S variant; type: cell-based
T2 construct: expressed in transfected cells; host or cells: HEK293
Procedure: (§2) A luciferase reporter-based assay was utilized as an index of receptor-mediated signaling (as in Doyle et al., 2013). Human kidney cells (HEK293), grown in Dulbecco's modified Eagle's medium (DMEM) containing 10% FBS, 100 U/ml penicillin, and 100 μg/ml streptomycin were seeded in 96-well plates and grown to 80% confluence. […]
as §1, with “Luciferase activity was normalized using the β-galactosidase activity data. Three independent experiments were performed, each with three technical replicates.” left out
(§3) GraphPad Prism software version 6.0 (GraphPad Software Inc., La Jolla, Calif.) was used for sigmoidal curve fitting of ligand concentration—response curves, linear regression, and statistical analysis. EC50 and pEC50 values were calculated for each independent experiment as an index of ligand potency. […]
Signaling of MrgprX1 following stimulation with the endogenous peptide ligand BAM8-22 was measured using a luciferase reporter assay as described herein. […]

MrgprX1 R55L variant = molecular target: T3, MrgprX1 R55L variant (Homo sapiens, UniProt Q96LB2, R55L); assay: SRE-luciferase reporter gene assay in transfected HEK293 cells, R55L variant; type: cell-based; settings: significant only with tethered γ2-MSH
T3 construct: expressed in transfected cells; host or cells: HEK293
Procedure: as §2
as §1, with “Luciferase activity was normalized using the β-galactosidase activity data. Three independent experiments were performed, each with three technical replicates.” left out
as §3
(§4) The activity of tethered and lipidated BAMS-22 at each of the seven MrgprX1 variants was assessed (FIGS. 4A-4B). […]

MrgprX1 H133R variant = molecular target: T4, MrgprX1 H133R variant (Homo sapiens, UniProt Q96LB2, H133R); assay: SRE-luciferase reporter gene assay in transfected HEK293 cells, H133R variant; type: cell-based
T4 construct: expressed in transfected cells; host or cells: HEK293
Procedure: as §2
as §1, with “Luciferase activity was normalized using the β-galactosidase activity data. Three independent experiments were performed, each with three technical replicates.” left out
as §3, §4

MrgprX1 F273L variant = molecular target: T5, MrgprX1 F273L variant (Homo sapiens, UniProt Q96LB2, F273L); assay: SRE-luciferase reporter gene assay in transfected HEK293 cells, F273L variant; type: cell-based; settings: significant only with tethered γ2-MSH
T5 construct: expressed in transfected cells; host or cells: HEK293
Procedure: as §2
as §1, with “Luciferase activity was normalized using the β-galactosidase activity data. Three independent experiments were performed, each with three technical replicates.” left out
as §3, §4

T1 sequence (Q96LB2 whole entry): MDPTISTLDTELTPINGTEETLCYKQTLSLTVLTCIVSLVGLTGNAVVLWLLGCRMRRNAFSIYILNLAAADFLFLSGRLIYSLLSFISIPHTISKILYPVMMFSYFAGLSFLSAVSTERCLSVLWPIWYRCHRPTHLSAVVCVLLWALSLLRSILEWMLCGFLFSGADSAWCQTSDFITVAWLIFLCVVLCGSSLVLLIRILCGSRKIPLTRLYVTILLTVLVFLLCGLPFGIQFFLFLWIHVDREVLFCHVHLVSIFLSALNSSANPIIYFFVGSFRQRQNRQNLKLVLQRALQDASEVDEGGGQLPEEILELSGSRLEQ
T2 sequence (Q96LB2 whole entry R131S): as the sequence (Q96LB2 whole entry) above, with R131S counted along it
T4 sequence (Q96LB2 whole entry H133R): as the sequence (Q96LB2 whole entry) above, with H133R counted along it
T3 sequence (Q96LB2 whole entry R55L): as the sequence (Q96LB2 whole entry) above, with R55L counted along it
T5 sequence (Q96LB2 whole entry F273L): as the sequence (Q96LB2 whole entry) above, with F273L counted along it

Substance | time after administration at which the effect returns to baseline [1] [min] | receptor stimulation at the highest tested concentration (wild type MrgprX1; 10 μM, accurate EC50 values could not be calculated) | ligand-mediated signaling compared to wild type receptor (MrgprX1 R131S variant) | ligand-mediated signaling compared to wild type receptor (MrgprX1 R55L variant) | ligand-mediated signaling compared to wild type receptor (MrgprX1 H133R variant) | ligand-mediated signaling compared to wild type receptor (MrgprX1 F273L variant) | signaling at saturating concentration, of maximum lipidated BAM8-22 signaling (wild type MrgprX1; WT receptor, relative to lipidated BAM8-22 at 10^−7 M, mean±SEM, data not shown) [%] | MTL activation of the receptor (wild type MrgprX1; co-expressed with MrgprX1 in HEK293, increasing amounts of MTL cDNA, FIG. 3A, 3B) | tethered ligand induced receptor activity of substituted BAM8-22 MTL (wild type MrgprX1; MTL construct in HEK293 cells)
bovine adrenal medulla peptide 8-22 (VGRPEWWMDYQKRYG) [BAM8-22, reference compound] | 90 | does not fully stimulate the receptors | lower levels of BAMS-22 mediated activity | – | – | – | – | – | –
tethered BAM8-22: cDNA-encoded type I membrane tethered ligand: BAM8-22 fused to a transmembrane domain via a flexible linker, free extracellular N terminus (VGRPEWWMDYQKRYG; also: fused at C-terminus via flexible linker to a transmembrane domain (type I tethered ligand)) | – | – | negligible signaling levels | moderate decrease in signaling | not observed | moderate decrease in signaling | 38.4±5.4 | Active | –
M15A-Y17W: double substituted BAM8-22 MTL analog, M15A and Y17W (VGRPEWWADWQKRYG; left off: small tags and cut ends; large carriers) | – | – | – | – | – | – | – | – | full activity
